This note sets out measurements from PMC4258549 (Journal of immunology (Baltimore, Md. : 1950), 2014).

In assay [1] the target is T1, biotinylated C4b (human, biotin through Maleimide-PEG2-Biotin (residue not stated)). The experiment in a line: AlphaScreen or HTRF. (Bead proximity is the source of the signal in Alpha formats.)
Assay [2] has as its target T1, biotinylated C4b. Kind of assay: SPR. (In general: Surface plasmon resonance follows binding to a sensor surface in real time, without labels.)

B1: Eap23 (Eap fragment of domains 2 and 3) (domain or fragment)
chain: ANVQVPYTITVNGTSQNILSNLTFNKNQNISYKDLEGKVKSVLESNRGITDVDLRLSKQAKYTVNFKNGTKKVIDLKSGIYTANLINSSDIKSININVDTKKHIENKAKRNYQVPYSINLNGTSTNILSNLSFSNKPWTNYKNLTSQIKSVLKHDRGISEQDLKYAKKAYYTVYFKNGGKRILQLNSKNYTANLVHAKDVKRIEITVKTGTKAKADRYV
Broadly, the Kd is the constant that tells how readily two partners part at equilibrium. Higher therefore signals a looser complex. Consider B1, for which, in the assay with biotinylated C4b [1], the Kd was determined as 293 ± 38 nM.

B2: Eap34 (Eap fragment of domains 3 and 4) (domain or fragment)
chain: NYQVPYSINLNGTSTNILSNLSFSNKPWTNYKNLTSQIKSVLKHDRGISEQDLKYAKKAYYTVYFKNGGKRILQLNSKNYTANLVHAKDVKRIEITVKTGTKAKADRYVPYTIAVNGTSTPILSKLKISNKQLISYKYLNDKVKSVLKSERGISDLDLKFAKQAKYTVYFKNGKKQVVNLKSDIFTPNLFSAKDIKKIDIDVKQYTKSKKK
A word on the IC50: it is the concentration that inhibits the measured activity by half. Read a low IC50 as greater potency in that assay. Take B2: the half-inhibitory concentration (IC50) with biotinylated C4b [2] is ~870 nM. This molecule came in with a Kd in the assay with biotinylated C4b [1] of 525 ± 65 nM.

B3: Eap12 (Eap fragment of domains 1 and 2) (domain or fragment)
chain: GHSNIQIPYTITVNGTSQNILSSLTFNKNQNISYKDIENKVKSVLYFNRGISDIDLRLSKQAEYTVHFKNGTKRVIDLKSGIYTADLINTSDIKAISVNVDTKKQPKDKAKANVQVPYTITVNGTSQNILSNLTFNKNQNISYKDLEGKVKSVLESNRGITDVDLRLSKQAKYTVNFKNGTKKVIDLKSGIYTANLINSSDIKSININVDTKKHIENKAKR
As to B3, in the assay with biotinylated C4b [1], the “fold weaker binding than Eap” value was ~100 fold.
